Results: patent US20240261333A1 (published 2024)

Columns and labels:
Experiment in all cases: co-IP with anti-FLAG, mass spectrometry; lysate of cells with N-FLAG B3GNT2
HADHA = target: T1, HADHA (human, UniProt P40939 37-763)
T1 construct: also called NP_000173.2
Protocol: (§1) Cells were plated in 10-cm cell culture dishes and grown to 60-80% confluency. For each condition, two biological replicates were harvested for co-IP. Cells were washed with PBS and 4 mL of lysis buffer (20 mM HEPES, 1% Triton X-100, 150 mM NaCl, 1 mM EDTA, and 10% glycerol) containing protease inhibitor cocktail was added. Cells were scraped and lysate was incubated at 4° C. under rotary agitation for 1 h. Lysate was centrifuged at 14,000×g for 10 min at 4° C. Supernatant was transferred to a new tube and an aliquot was taken as the input. […] For Western blots, 10 μg/mL Chicken Anti-FLAG (Aves labs ET-DY100) and IgY control (R&D Systems AB-101-C) antibodies were biotinylated (Thermo Fisher Scientific 90407) and added to the respective conditions. Lysates with antibodies were incubated at 4° C. under rotary agitation overnight. For each mL of lysate, 50 μL of Pierce Protein A/G Magnetic Beads (Mass spectrometry; Thermo Fisher Scientific 88803) or Pierce Streptavidin Magnetic Beads (Western blot; Thermo Fisher Scientific 88817) was washed twice with lysis buffer. Lysates with antibodies were added to the beads and incubated at 4° C. under rotary agitation for 4 h. Beads were washed with lysis buffer 3 times and resuspended in lysis buffer for storage.
(§2) Magnetic beads were resuspended in 100 mM Tris pH 7.8, reduced, alkylated and digested with trypsin at 37° ° C. overnight. This solution was subjected to solid phase extraction to concentrate the peptides and remove unwanted reagents followed by injection onto a Shimadzu HPLC with fraction collector. Eight fractions were collected and after concentration were injected on a Waters NanoAcquity HPLC equipped with a self-packed Aeris 3 μm C18 analytical column 0.075 mm by 20 cm, (Phenomenex). Peptides were eluted using standard reverse-phase gradients. The effluent from the column was analyzed using a Thermo Orbitrap Elite mass spectrometer (nanospray configuration) operated in a data dependent manner for 54 minutes. The resulting fragmentation spectra were correlated against the known database using Proteome Discover 1.4 (Thermo Fisher Scientific).

GAPDH = target: T2, GAPDH (human, UniProt P04406 2-335, limits assumed)
T2 construct: also called NP_001344872.1 (+1)
Protocol: as §1, §2

RPL26 = RPL26 (human, UniProt P61254 1-145)
Protocol: as §1, §2

TOR1AIP2 = target: T3, TOR1AIP2 (human, UniProt Q8NFQ8 2-470)
T3 construct: also called NP_001336864.1 (+1)
Protocol: as §1, §2

GALNT2 = target: T4, GALNT2 (human, UniProt Q10471 1-571, limits assumed)
T4 construct: also called NP_001278795.1 (+1)
Protocol: as §1, §2

SDF4 = target: T5, SDF4 (human, UniProt Q9BRK5 37-362)
T5 construct: also called NP_057260.2 (+2)
T5 sequence (looked up): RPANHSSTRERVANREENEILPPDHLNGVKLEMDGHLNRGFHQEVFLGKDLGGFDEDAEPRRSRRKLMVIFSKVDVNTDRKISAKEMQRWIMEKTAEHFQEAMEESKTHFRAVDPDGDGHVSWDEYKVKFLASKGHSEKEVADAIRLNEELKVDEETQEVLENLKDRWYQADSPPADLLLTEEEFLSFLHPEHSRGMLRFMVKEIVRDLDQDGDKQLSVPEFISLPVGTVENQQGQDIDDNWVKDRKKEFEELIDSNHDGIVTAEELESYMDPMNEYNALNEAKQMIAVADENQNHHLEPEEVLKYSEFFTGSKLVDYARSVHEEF
Protocol: as §1, §2

STAU2 = target: T6, STAU2 (human, UniProt Q9NUL3 1-570, limits assumed)
T6 construct: also called NP_001157852.1 (+4)
T6 sequence (looked up): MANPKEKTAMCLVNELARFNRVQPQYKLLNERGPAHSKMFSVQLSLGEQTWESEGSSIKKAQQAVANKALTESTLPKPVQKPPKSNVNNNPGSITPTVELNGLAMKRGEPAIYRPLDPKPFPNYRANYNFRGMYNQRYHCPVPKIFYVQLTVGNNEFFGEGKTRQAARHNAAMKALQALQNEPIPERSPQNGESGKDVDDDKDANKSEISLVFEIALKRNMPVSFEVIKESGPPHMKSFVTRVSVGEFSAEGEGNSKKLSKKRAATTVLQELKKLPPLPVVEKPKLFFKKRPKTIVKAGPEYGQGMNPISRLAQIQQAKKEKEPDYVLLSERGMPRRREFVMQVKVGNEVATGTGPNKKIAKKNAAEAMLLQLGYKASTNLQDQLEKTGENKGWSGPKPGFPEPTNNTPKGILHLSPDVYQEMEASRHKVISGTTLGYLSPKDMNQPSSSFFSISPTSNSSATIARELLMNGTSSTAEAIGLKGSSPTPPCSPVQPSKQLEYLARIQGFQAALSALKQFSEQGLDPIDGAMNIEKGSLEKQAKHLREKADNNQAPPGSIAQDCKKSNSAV
Protocol: as §1, §2

SLC27A4 = target: T7, SLC27A4 (human, UniProt Q6P1M0 1-643)
T7 construct: also called NP_005085.2
Protocol: as §1, §2

CTHRC1 = target: T8, CTHRC1 (human, UniProt Q96CG8-3 1-229, limits assumed)
T8 construct: also called NP_001243028.1 (+1)
Protocol: as §1, §2

NPM1 = target: T9, NPM1 (human, UniProt P06748 1-294)
T9 construct: also called NP_001341935.1 (+1)
Protocol: as §1, §2

T3 sequence (Q8NFQ8 2-470 limits assumed): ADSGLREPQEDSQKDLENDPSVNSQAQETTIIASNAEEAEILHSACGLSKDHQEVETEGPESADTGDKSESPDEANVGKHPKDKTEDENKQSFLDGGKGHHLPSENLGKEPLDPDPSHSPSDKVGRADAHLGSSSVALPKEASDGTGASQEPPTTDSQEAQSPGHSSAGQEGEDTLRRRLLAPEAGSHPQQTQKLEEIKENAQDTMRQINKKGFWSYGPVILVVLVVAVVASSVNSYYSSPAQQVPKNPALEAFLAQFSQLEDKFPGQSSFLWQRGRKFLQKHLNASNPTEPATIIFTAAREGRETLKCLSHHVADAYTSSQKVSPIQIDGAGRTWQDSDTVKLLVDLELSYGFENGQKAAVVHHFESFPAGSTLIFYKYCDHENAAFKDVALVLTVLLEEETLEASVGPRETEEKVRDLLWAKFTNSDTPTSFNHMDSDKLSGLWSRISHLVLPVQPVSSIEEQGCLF
T9 sequence (P06748 whole entry): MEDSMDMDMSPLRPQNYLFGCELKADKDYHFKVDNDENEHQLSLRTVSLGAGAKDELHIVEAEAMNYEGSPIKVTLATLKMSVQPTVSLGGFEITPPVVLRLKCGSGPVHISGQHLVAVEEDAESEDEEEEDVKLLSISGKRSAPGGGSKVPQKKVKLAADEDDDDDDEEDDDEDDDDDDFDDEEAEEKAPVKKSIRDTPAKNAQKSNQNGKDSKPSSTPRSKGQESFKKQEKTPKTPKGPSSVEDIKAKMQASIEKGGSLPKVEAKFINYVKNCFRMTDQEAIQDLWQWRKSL
T1 sequence (P40939 37-763 limits assumed): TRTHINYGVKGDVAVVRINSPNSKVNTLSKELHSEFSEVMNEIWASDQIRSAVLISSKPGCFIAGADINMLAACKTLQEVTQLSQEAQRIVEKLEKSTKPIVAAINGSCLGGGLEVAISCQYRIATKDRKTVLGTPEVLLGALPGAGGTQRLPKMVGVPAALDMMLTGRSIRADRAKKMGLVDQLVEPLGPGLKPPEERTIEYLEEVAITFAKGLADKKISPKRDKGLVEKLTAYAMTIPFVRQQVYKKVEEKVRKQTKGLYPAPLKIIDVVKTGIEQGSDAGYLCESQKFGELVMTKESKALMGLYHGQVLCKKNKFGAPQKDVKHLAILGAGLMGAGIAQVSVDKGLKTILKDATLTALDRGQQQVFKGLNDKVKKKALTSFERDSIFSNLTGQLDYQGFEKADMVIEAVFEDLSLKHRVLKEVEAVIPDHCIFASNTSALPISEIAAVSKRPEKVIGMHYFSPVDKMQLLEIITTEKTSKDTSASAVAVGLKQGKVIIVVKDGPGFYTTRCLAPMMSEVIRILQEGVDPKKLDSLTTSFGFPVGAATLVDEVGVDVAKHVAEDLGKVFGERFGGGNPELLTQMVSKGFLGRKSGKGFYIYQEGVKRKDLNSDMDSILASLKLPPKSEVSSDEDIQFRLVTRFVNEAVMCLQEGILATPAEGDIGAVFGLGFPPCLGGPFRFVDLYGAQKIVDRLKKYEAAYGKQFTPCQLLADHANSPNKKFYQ
T2 sequence (P04406 2-335 limits assumed): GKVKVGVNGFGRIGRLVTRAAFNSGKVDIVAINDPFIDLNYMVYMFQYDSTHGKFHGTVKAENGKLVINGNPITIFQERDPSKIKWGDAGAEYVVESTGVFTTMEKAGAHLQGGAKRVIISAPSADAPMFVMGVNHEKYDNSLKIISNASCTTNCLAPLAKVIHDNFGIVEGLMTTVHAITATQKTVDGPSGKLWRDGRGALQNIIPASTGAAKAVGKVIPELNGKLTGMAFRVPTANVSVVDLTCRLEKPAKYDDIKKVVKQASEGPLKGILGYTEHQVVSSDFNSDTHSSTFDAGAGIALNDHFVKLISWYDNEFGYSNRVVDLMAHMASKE
T7 sequence (Q6P1M0 whole entry): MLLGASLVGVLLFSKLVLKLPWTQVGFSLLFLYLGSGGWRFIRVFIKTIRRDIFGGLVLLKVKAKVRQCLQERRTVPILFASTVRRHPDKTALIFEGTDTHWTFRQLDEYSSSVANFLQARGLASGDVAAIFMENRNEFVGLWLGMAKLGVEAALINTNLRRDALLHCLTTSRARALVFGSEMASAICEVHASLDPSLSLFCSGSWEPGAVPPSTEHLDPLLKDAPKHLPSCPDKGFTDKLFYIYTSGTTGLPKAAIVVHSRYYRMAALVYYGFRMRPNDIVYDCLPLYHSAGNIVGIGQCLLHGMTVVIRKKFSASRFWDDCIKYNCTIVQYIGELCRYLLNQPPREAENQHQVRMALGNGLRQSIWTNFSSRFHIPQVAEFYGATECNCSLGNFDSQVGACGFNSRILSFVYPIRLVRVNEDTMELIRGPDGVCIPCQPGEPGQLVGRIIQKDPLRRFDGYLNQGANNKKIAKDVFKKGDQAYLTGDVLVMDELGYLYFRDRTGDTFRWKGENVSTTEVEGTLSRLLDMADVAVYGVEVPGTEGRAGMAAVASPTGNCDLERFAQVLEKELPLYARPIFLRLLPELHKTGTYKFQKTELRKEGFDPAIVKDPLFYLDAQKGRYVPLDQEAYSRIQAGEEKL
T4 sequence (Q10471 whole entry): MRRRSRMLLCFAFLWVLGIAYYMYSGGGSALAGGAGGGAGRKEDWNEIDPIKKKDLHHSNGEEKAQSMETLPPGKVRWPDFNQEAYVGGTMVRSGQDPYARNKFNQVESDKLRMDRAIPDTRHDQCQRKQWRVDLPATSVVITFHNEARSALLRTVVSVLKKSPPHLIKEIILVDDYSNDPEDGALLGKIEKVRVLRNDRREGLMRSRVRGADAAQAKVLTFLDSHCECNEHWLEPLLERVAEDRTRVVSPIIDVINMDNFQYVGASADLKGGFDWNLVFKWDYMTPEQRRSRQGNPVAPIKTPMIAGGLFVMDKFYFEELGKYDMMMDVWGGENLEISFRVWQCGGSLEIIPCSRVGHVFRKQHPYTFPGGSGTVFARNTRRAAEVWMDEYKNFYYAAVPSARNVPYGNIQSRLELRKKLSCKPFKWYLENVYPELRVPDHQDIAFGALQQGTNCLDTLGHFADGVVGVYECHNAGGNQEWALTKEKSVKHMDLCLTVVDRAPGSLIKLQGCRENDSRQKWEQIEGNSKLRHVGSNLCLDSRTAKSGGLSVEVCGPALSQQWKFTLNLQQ
T8 sequence (Q96CG8 other isoform, or with tags, fused parts or gaps limits assumed): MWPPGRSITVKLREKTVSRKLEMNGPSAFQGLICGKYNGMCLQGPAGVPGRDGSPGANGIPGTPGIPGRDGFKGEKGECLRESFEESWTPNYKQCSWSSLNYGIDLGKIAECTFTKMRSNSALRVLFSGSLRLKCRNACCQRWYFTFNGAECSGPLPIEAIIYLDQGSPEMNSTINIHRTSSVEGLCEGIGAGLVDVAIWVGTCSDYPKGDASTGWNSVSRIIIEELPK

B1: N-terminal FLAG tagged B3GNT2 (enzyme, human, UniProt Q9NY97 1-397, looked up)
chain: MSVGRRRIKLLGILMMANVFIYFIMEVSKSSSQEKNGKGEVIIPKEKFWKISTPPEAYWNREQEKLNRQYNPILSMLTNQTGEAGRLSNISHLNYCEPDLRVTSVVTGFNNLPDRFKDFLLYLRCRNYSLLIDQPDKCAKKPFLLLAIKSLTPHFARRQAIRESWGQESNAGNQTVVRVFLLGQTPPEDNHPDLSDMLKFESEKHQDILMWNYRDTFFNLSLKEVLFLRWVSTSCPDTEFVFKGDDDVFVNTHHILNYLNSLSKTKAKDLFIGDVIHNAGPHRDKKLKYYIPEVVYSGLYPPYAGGGGFLYSGHLALRLYHITDQVHLYPIDDVYTGMCLQKLGLVPEKHKGFRTFDIEEKNKNNICSYVDLMLVHSRKPQEMIDIWSQLQSAHLKC
notes: Bait of the co-IP; pulled down with mouse anti-FLAG (Millipore Sigma F3165) from cell lysate; also called N-FLAG B3GNT2; N-term FLAG; not shown: N-terminal FLAG tag
- co-IP mass spectrometry count (HADHA): 0
- co-IP mass spectrometry count (GAPDH): 18
- co-IP mass spectrometry count (RPL26): 7
- co-IP mass spectrometry count (TOR1AIP2): 0
- co-IP mass spectrometry count (GALNT2): 0
- co-IP mass spectrometry count (SDF4): 0
- co-IP mass spectrometry count (STAU2): 0
- co-IP mass spectrometry count (SLC27A4): 0
- co-IP mass spectrometry count (CTHRC1): 0
- co-IP mass spectrometry count (NPM1): 0
